Earlier results as cited in US7630838B2, “Method for identifying agents that interact with beta-site APP cleaving enzyme (BACE)” (American Home Products Corporation, priority 2000, dated 2009).
Non-standard residues stand in square brackets, D forms with d. No end group written: not given here. Sta = CC(C)C[C@H](N)[C@@H](O)CC(=O)O

Target: β-secretase enzyme (Homo sapiens, UniProt P56817)
Conditions: stated in words only; no number given

β-secretase enzyme, sequence (P56817 46-501): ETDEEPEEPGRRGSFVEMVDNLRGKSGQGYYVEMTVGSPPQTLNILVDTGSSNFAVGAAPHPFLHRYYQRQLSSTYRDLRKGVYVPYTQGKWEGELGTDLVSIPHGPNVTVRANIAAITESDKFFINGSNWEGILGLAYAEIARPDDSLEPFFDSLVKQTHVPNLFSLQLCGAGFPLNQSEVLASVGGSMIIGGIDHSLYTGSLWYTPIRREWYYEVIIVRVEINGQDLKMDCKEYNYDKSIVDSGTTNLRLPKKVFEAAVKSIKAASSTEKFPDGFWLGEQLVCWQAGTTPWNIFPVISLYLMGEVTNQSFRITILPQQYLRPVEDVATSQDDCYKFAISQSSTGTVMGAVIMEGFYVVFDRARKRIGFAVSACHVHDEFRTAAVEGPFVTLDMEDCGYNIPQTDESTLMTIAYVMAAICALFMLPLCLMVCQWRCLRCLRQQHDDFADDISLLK

SER-GLU-VAL-ASN-Sta-VAL-ALA-GLU-PHE (SEVN[Sta]VAEF) [statine based inhibitor, based on the APP Swedish mutation]
inhibit the β-secretase enzyme (efficiency): nanomolar efficiency
